Test results from patent US20070259824A1 (TOUDAI TLO, published 2007).

Tests used:
[1] = biological target: T1, CD26 on activated T cells (human, UniProt P27487 1-766); assay: T cell-monocyte conjugates, confocal microscopy
T1 construct: whole, on cells; also called CD26 on T cells

[2] = biological target: MyD88 (in TT-loaded monocytes) (human, UniProt Q99836 1-296); assay: immunoprecipitation with anti-caveolin-1 pAb from TT-loaded monocytes
[3] = biological target: T2, IRAK-4 (in TT-loaded monocytes) (human, UniProt Q9NWZ3 1-460); assay: as above
T2 sequence: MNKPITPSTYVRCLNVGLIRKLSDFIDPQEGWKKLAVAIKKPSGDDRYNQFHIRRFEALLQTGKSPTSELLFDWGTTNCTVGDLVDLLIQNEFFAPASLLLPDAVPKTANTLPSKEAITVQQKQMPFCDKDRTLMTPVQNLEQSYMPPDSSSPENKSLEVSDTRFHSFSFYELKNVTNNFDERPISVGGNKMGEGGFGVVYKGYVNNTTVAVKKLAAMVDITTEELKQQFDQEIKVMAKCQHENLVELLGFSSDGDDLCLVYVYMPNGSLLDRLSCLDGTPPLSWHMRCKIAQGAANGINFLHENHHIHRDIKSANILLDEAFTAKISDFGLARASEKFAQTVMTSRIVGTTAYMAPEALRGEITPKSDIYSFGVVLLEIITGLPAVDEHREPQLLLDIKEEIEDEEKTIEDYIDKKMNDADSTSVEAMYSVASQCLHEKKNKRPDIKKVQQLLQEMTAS

[4] = biological target: endogenous Tollip (THP-1 cells, monocytes) (human, UniProt Q9H0E2 2-274); assay: immunoprecipitation with anti-caveolin-1 pAb from TT-loaded monocytes, immunoblot with anti-Tollip
[5] = biological target: T3, GST-CD26 D2 (residues 267-584) (UniProt P27487 267-584); assay: GST pull-down from THP-1 lysate, immunoblot with anti-caveolin-1
T3 construct: range 267-584; Produced in COS-7 cells, on GSH beads; not shown: GST of mammalian vector pEBG
T3 sequence (P27487 267-584): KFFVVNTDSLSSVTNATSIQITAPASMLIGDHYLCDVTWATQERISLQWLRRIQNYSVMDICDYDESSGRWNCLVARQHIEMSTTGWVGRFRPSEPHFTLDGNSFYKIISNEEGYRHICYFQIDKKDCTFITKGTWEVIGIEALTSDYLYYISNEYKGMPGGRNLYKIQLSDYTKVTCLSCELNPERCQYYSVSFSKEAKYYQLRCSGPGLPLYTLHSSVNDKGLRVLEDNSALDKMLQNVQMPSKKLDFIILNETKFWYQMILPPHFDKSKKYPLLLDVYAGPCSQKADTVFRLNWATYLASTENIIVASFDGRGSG

[6] = biological target: T4, GST-CD26 D1 (residues 507-766) (UniProt P27487 507-766); assay: as above
T4 construct: Produced in COS-7 cells, on GSH beads; not shown: GST of mammalian vector pEBG
T4 sequence (P27487 507-766): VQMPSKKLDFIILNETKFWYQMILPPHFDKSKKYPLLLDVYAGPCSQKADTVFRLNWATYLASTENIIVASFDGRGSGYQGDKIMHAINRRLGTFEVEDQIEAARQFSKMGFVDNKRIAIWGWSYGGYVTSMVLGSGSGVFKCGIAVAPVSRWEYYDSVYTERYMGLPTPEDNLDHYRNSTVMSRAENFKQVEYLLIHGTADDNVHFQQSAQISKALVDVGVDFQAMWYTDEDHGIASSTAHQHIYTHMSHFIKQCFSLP

[7] = biological target: T5, recombinant soluble CD26 (rsCD26 wt) (UniProt P27487 29-766, limits assumed); assay: confocal microscopy of transfected HEK293 cells
T5 construct: extracellular domain; Used free, conjugated with Texas red, or coated on latex beads; also called sCD26-TR; CD26-TR
T5 sequence (P27487 29-766 limits assumed): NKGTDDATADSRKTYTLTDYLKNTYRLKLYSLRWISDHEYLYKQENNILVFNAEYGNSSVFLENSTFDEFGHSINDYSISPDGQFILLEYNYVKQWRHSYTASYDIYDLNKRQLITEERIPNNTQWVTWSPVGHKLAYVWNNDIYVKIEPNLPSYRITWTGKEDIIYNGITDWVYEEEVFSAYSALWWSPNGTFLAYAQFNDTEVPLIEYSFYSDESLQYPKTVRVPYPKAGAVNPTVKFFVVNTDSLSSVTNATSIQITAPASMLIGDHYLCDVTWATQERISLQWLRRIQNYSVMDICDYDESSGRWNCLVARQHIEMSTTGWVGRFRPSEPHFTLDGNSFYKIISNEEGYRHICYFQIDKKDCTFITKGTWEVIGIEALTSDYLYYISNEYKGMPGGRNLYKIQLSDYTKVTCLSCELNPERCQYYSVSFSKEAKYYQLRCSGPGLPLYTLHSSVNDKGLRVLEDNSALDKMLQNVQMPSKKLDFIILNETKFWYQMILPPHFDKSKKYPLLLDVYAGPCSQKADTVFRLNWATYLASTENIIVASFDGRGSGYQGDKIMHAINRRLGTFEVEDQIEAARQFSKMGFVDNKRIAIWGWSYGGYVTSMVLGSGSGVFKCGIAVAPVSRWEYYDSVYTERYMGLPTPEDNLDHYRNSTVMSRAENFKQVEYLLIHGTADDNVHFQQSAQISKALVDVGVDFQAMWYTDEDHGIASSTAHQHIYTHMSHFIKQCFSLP

[8] = biological target: T6, CD26 S630A-GFP on transfected HEK293 cells (UniProt P27487 1-766); assay: confocal microscopy of transfected HEK293 cells
T6 construct: also called DPPIV activity-deleted mutant (S630A); not shown: EGFP of vector pEB6-CAG-EGFP
T6 sequence (P27487 whole entry S630A): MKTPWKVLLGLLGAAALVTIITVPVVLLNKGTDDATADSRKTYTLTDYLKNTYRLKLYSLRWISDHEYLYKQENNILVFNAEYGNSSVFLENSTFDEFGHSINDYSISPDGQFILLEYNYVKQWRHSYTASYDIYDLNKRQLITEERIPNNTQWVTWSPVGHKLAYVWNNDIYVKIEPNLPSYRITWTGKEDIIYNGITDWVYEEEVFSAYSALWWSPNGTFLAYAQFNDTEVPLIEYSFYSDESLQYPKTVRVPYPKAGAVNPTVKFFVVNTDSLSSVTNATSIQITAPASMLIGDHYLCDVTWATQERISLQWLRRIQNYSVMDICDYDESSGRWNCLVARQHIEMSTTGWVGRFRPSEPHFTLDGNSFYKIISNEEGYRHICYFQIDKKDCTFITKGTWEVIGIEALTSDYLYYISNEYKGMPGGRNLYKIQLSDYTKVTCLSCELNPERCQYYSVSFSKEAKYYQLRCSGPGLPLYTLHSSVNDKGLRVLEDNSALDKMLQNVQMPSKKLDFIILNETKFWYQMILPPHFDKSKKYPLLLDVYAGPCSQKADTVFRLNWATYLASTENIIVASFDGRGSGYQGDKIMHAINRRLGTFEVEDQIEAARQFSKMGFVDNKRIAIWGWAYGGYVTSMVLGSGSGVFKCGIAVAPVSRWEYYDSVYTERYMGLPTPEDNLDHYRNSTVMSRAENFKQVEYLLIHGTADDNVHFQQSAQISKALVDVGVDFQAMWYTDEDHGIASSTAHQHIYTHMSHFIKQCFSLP

[9] = biological target: T7, GFP-fused wild type CD26 (CD26 wt-GFP) on transfected HEK293 cells (UniProt P27487 1-766); assay: confocal microscopy of transfected HEK293 cells
T7 construct: also called CD26-EGFP; GFP-CD26 wt; not shown: EGFP of vector pEB6-CAG-EGFP (engineered variant of Aequorea victoria GFP)
T7 sequence (P27487 whole entry, the tested form may be a part): as the sequence (P27487 whole entry S630A) above, with A630S counted along it

[10] = biological target: T8, CD26 in J.CD26 cell lysate (Jurkat T cells with stable expression of CD26) (UniProt P27487 1-766); assay: GST pull-down from J.CD26 lysate, immunoblot with anti-CD26
T8 construct: Whole CD26 from transfected cells, used as lysate in the GST pull-down; also called CD26 transfected Jurkat T cells
T8 sequence (P27487 whole entry): as the sequence (P27487 whole entry S630A) above, with A630S counted along it

Sequence of MyD88 (in TT-loaded monocytes) (Q99836 whole entry): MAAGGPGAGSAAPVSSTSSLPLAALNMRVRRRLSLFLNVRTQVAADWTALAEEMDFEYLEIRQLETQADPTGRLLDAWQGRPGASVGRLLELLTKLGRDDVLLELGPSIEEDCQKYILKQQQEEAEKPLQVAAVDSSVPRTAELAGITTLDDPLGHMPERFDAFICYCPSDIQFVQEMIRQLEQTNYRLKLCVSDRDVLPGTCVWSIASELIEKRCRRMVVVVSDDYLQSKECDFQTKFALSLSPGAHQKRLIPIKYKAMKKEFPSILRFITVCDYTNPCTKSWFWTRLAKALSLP
T1 sequence (P27487 whole entry): as the sequence (P27487 whole entry S630A) above, with A630S counted along it

B1: caveolin-1 on the cell surface of TT-loaded monocytes (other)
chain: SGGKYVDSEGHLYTVPIREQGNIYKPNNKAMADELSEKQVYDAHTKEIDLVNRDPKHLNDDVVKIDFEDVIAEPEGTHSFDGIWKASFTTFTVTKYWFYRLLSALFGIPMALIWGIYFAILSFLHIWAVVPCIKSFLIEIQCISRVYSIYVHTVCDPLFEAVGKIFSNVRINLQKEI
notes: whole, on cells
- binding result [1]: binds

B2: endogenous caveolin-1 (THP-1 cell lysate, monocyte lysate) (other, human, UniProt Q03135 2-178, looked up)
chain: SGGKYVDSEGHLYTVPIREQGNIYKPNNKAMADELSEKQVYDAHTKEIDLVNRDPKHLNDDVVKIDFEDVIAEPEGTHSFDGIWKASFTTFTVTKYWFYRLLSALFGIPMALIWGIYFAILSFLHIWAVVPCIKSFLIEIQCISRVYSIYVHTVCDPLFEAVGKIFSNVRINLQKEI
notes: Endogenous whole protein from cell lysates
- binding result [2]: no binding
- binding result [3]: no binding
- binding result [4]: binds
- binding result [5]: no binding
- binding result [6]: no binding

B3: GFP-fused full-length caveolin-1 (caveolin-1-GFP) in transfected cells (other, UniProt Q03135 1-178, looked up)
chain: MSGGKYVDSEGHLYTVPIREQGNIYKPNNKAMADELSEKQVYDAHTKEIDLVNRDPKHLNDDVVKIDFEDVIAEPEGTHSFDGIWKASFTTFTVTKYWFYRLLSALFGIPMALIWGIYFAILSFLHIWAVVPCIKSFLIEIQCISRVYSIYVHTVCDPLFEAVGKIFSNVRINLQKEI
notes: Expressed in HEK293 cells (with sCD26-TR) or stably in THP-1 cells (with Tollip); also called caveolin-1-EGFP; GFP-caveolin-1; not shown: EGFP of vector pEB6-CAG-EGFP
- binding result [7]: binds

B4: Texas red conjugated caveolin-1 (cav-TR) (other, UniProt Q03135 1-178, looked up)
chain: MSGGKYVDSEGHLYTVPIREQGNIYKPNNKAMADELSEKQVYDAHTKEIDLVNRDPKHLNDDVVKIDFEDVIAEPEGTHSFDGIWKASFTTFTVTKYWFYRLLSALFGIPMALIWGIYFAILSFLHIWAVVPCIKSFLIEIQCISRVYSIYVHTVCDPLFEAVGKIFSNVRINLQKEI
modifications: Texas red conjugated
notes: range 1-178; also called caveolin-1 wt recombinant protein
- binding result [8]: no binding
- binding result [9]: binds

B5: GST-Cav-1 (1-82) (other, UniProt Q03135 1-82, looked up)
chain: MSGGKYVDSEGHLYTVPIREQGNIYKPNNKAMADELSEKQVYDAHTKEIDLVNRDPKHLNDDVVKIDFEDVIAEPEGTHSFD
notes: range 1-82; not shown: GST of vector pGEX6p1
- binding result [10]: no binding

B6: GST-Cav-1 (102-178) (other, UniProt Q03135 102-178, looked up)
chain: LLSALFGIPMALIWGIYFAILSFLHIWAVVPCIKSFLIEIQCISRVYSIYVHTVCDPLFEAVGKIFSNVRINLQKEI
notes: range 102-178; not shown: GST of vector pGEX6p1
- binding result [10]: no binding
